Reference: patent publication US20240199740A1

Legend:
[1] = target: cynomolgus TCR/CD3 expressed on cells (cynomolgus); test: cell-based or functional assay
[2] = target: recombinant human CD123 protein (R&D Systems, 301-R3/CF) (human) (UniProt P26951); test: ELISA, antibody 7G3 coated at 1 µg/ml, in house biotinylated recombinant CD123 titrated (concentration axis taken as CD123 per paragraph 750)
[3] = target: recombinant human CD123 protein (R&D Systems, 301-R3/CF) (human) (UniProt P26951); test: competition ELISA, coated antibody 7G3, 4 nM biotinylated recombinant CD123, antibody 7G3 in solution titrated

Chain of recombinant human CD123 protein (R&D Systems, 301-R3/CF) (human) (P26951 19-305): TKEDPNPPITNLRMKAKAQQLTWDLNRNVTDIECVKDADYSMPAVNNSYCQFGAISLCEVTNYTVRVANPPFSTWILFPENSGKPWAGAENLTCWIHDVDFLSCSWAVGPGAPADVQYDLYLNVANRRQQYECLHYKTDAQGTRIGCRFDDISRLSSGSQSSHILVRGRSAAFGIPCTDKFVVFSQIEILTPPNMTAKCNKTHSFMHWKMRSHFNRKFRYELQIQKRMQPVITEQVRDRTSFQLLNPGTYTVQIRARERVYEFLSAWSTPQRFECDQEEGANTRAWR

B1: T017000135 (bispecific antibody)
chain: DVQLVESGGGLVQAGGPLRLSCAASGRTFSSYVMGWFRQAPGKEREFVAAIYWSNGKTQYTDSVKGRFTISGDNAKNTVYLQMNSLNPEDTAVYYCVADKDETGFRTLPIAYDYWGQGTLVTVSSGGGGSGGGGSGGGGSGGGGSGGGGSGGGGSGGGGSEVQLVESGGGLVQPGGSLRLSCVASGDVHKINFLGWYRQAPGKEREKVAHISIGDQTDYADSAKGRFTISRDESKNMVYLQMNSLKPEDTAVYFCRAFSRIYPYDYWGQGTLVTVSSGGGGSGGGGSGGGGSGGGGSGGGGSGGGGSGGGGSEVQLVESGGGLVQAGGSLRLSCAASGITSKINDMGWYRQTPGNYREWVASITATGTTNYRDSVKGRFTISRDNAKSTVYLQMNSLKPEDTTVYYCNTFPPISNFWGQGTLVTVSSA
Q: Which results are given for B1?
A: % lysis, redirected cyno T cell mediated killing of KG1a cells, flow cytometry [1]: 22%; EC50 (M), redirected cyno T cell mediated killing of KG1a cells, flow cytometry [1]: 2.4e-11 M

B2: mouse monoclonal anti-CD123 antibody (clone 7G3) (antibody, from another filing, V domains shown)
VH: EVQLQQSGPELVKPGASVKMSCKASGYTFTDYYMKWVKQSHGKSLEWIGDIIPSNGATFYNQKFKGKATLTVDRSSSTAYMHLNSLTSEDSAVYYCTRSHLLRASWFAYWGQGTLVTVSA
VL: DFVMTQSPSSLTVTAGEKVTMSCKSSQSLLNSGNQKNYLTWYLQKPGQPPKLLIYWASTRESGVPDRFTGSGSGTDFTLTISSVQAEDLAVYYCQNDYSYPYTFGGGTKLEIK
Q: How did the EC50 (read off the curve) [2] turn out when B2 was run?
A: The EC50 (read off the curve) was 10 nM.

Q: And the IC50 (read off the curve) [3]?
A: Its IC50 (read off the curve) is 2 nM.
